Here are results for one molecule from patent US20190016799A1 (HANGZHOU SUMGEN BIOTECHNOLOGY, published 2019).

The target of experiment [1] is T1, hPD1-Fc (fusion protein of human PD-1 protein extracellular segment-human IgG1 Fc fragment) (human, UniProt Q15116 25-170).
T1 construct: extracellular domain; Expressed in CHO-K1 cells; also called hPD1-FC-Biotin (biotin-labeled form); not shown: human IgG1 Fc fragment
Kind of experiment: ELISA, plate coated with hPD1-Fc 1 ug/ml, detection with GAH-Fab-HRP, OD450.

A further experiment deals with T2, CTLA4 (UniProt P16410 36-162).
T2 construct: Bought protein
T2 sequence (P16410 36-162 limits assumed): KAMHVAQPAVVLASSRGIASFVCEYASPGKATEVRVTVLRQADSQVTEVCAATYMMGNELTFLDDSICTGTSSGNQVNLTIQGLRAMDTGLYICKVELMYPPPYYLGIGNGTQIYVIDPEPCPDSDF
In words: ELISA, plate coated with CTLA4 1 ug/ml, detection with GAH-Fab-HRP, OD450; antibody concentration not shown on the sheet.

Experiment [2] addresses T1, hPD1-Fc (fusion protein of human PD-1 …). In words: ELISA, plate coated with hPD1-Fc 1 ug/ml, detection with GAH-Fab-HRP, OD450. The source holds these as a separate data set.
The target is the same in experiment [3]. In words: SPR (BIACORE), antibody captured by anti-human IgG-Fab on the chip, hPD1-FC as mobile phase at 3.125-100 nM; the text's value is tenfold above Table 1. As to the method: (§1) The antibody affinity was analyzed using BIACORE Biomacromolecular Interaction Device (GE).
The target in a further experiment is T3, CD28 (UniProt P10747 19-152).
T3 construct: Bought protein
Kind of experiment: ELISA, plate coated with CD28 1 ug/ml, detection with GAH-Fab-HRP, OD450; antibody concentration not shown on the sheet.

A further experiment deals with T4, monkey PD1 (monkey).
T4 construct: Bought protein; also called monkey PD1 protein; monkey PD1 antigen
Kind of experiment: ELISA, plate coated with monkey PD1 1 ug/ml, detection with GAH-Fab-HRP, OD450.

The next experiment addresses T5, ICOS (UniProt Q9Y6W8 21-140, limits assumed).
T5 construct: Bought protein
T5 sequence (looked up): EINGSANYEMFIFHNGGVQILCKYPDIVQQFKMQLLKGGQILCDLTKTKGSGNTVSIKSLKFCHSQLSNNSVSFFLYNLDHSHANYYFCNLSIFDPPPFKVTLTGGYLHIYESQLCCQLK
Kind of experiment: ELISA, plate coated with ICOS 1 ug/ml, detection with GAH-Fab-HRP, OD450; antibody concentration not shown on the sheet.

Experiment [4] has as its target T1, hPD1-Fc (fusion protein of human PD-1 …). In words: blocking ELISA: hPDL1 coated at 1 ug/mL, hPD1-FC-Biotin 5 ug/mL, antibody titrated from 500 ug/mL. As to the method:
(§2) The plate was washed 3 times with a washing solution repeatedly, added with HRP-labeled avidin, and placed in the dark at room temperature (20±5° C.) for 45 minutes. The plate was washed 5 times with a washing solution repeatedly, and patted on a drying paper to dry out the residual droplets as possible; added with 100 μl of TMB to each well, and placed in the dark for 3 min at room temperature (20±5° C.); 100 μl of 2N H₂SO₄ stop solution was added to each well to stop the substrate reaction, and the microplate reader was read at 450 nm for the OD value.

In the next experiment the target is T6, BTLA (UniProt Q7Z6A9 31-157, limits assumed).
T6 construct: Bought protein
Kind of experiment: ELISA, plate coated with BTLA 1 ug/ml, detection with GAH-Fab-HRP, OD450; antibody concentration not shown on the sheet.

The target of experiment [5] is T1, hPD1-Fc (fusion protein of human PD-1 …). Kind of experiment: SPR (BIACORE), antibody captured by anti-human IgG-Fab, hPD1-FC as analyte at 3.125-100 nM. As to the method: as §1
The target is the same in experiment [6]. Kind of experiment: competition ELISA, plate coated with hPD1-FC 1 µg/mL, competitor BMS01-Biotin 0.5 µg/mL, detection with HRP-avidin, OD450. As to the method:
as §2

Like-named read-outs stand apart in the source and are kept apart here.

T1 sequence (Q15116 25-170): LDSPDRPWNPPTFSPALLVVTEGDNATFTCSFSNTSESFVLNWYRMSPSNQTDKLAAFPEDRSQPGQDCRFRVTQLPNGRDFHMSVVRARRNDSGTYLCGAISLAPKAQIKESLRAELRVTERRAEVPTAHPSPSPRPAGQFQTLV

B1: SG001 antibody (antibody, human IgG1, kappa, V domains shown)
VH: QVQLVESGGGVVQPGRSLRLTCKASGLTFSSSGMHWVRQAPGKGLEWVAVIWYDGSKRYYADSVKGRFTISRDNSKNTLFLQMNSLRAEDTAVYYCATNNDYWGQGTLVTVSS
VL: EIVLTQSPATLSLSPGERATLSCRASQSVSSYLAWYQQKPGQAPRLLIYTASNRATGIPARFSGSGSGTDFTLTISSLEPEDFAVYYCQQYSNWPRTFGQGTKVEIKR
For B1, the “EC50 (read off the curve)” value was roughly 0.05 µg/mL in experiment [1], roughly 0.03 µg/mL in experiment [2] and roughly 0.03 µg/mL with monkey PD1. For the same molecule, the binding result in the experiment with CTLA4, with CD28, with ICOS and in the experiment with BTLA was “no binding” in each case. The Kd in experiment [3] and in experiment [5] was 0.215 nM each time. This molecule returned an IC50 in experiment [4] of 1.47 µg/mL. This molecule also had a koff in experiment [5] of 6.85e-05 s⁻¹. In experiment [5], this molecule returned a kon of 318000 M⁻¹ s⁻¹. In [6], the “IC50 (read off the curve)” value is roughly 30 µg/mL.
